Data reported in article PMC6628129 (Biology, 2019).

Molecular target: T1, Prostacyclin synthase (PTGIS), truncated, His-tagged, with Avi-tag, biotinylated (UniProt Q16647 1-500, biotin (in vivo biotinylation of the Avi-tag))
T1 construct: Prostacyclin synthase (PTGIS; EC 5.3.99.4), truncated (by the membrane domain); Held on the streptavidin (SA) chip; also called biotinylated PTGIS; PTGIS immobilized on the optical chip; source: E. coli BL21(DE3), purified (Ni-NTA, SEC)
T1 sequence (looked up): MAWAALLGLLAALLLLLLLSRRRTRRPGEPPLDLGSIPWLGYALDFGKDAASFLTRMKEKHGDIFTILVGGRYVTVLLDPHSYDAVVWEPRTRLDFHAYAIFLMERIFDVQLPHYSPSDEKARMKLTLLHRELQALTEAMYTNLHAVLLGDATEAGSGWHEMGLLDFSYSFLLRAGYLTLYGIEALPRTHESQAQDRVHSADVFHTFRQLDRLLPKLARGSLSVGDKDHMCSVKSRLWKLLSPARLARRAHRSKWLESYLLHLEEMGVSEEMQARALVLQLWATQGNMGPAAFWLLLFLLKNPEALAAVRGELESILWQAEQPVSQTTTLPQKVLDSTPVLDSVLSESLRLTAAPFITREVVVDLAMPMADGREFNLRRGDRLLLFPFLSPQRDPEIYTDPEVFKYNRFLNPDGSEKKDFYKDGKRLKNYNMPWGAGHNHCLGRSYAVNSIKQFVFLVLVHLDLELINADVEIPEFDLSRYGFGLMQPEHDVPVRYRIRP
Assay: SPR; biotinylated PTGIS on a streptavidin (SA) chip, purified protein injected as analyte; 25 °C, Biacore T-200
Conditions: both partners purified

B1: Cytochrome P450 2J2 (CYP2J2), truncated and His-tagged (enzyme)
chain: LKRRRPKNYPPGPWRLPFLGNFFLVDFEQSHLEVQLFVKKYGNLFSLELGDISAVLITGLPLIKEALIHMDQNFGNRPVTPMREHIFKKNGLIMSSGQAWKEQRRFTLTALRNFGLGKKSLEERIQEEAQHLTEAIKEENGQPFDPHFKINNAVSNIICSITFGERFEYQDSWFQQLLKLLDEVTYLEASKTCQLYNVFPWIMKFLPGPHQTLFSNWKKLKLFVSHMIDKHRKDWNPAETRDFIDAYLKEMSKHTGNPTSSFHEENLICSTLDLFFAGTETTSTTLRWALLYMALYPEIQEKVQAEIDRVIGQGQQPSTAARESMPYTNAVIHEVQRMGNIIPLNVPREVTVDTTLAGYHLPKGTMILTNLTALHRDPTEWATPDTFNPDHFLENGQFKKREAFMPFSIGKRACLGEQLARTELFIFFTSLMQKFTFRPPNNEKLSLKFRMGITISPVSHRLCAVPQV
B1 gave a Kd of 200 nM.
